Tests used:
Experiment in all cases: purified protein
[1] = test system: C[C@@H](O)[C@H]1C(=O)N2C(C(=O)O)=C(SCCN=CN)C[C@H]12
[2] = test system: C[C@@H](O)[C@H]1C(=O)N2C(C(=O)O)=C(S[C@@H]3CN[C@H](C(=O)N(C)C)C3)[C@H](C)[C@H]12
[3] = test system: CC(C)(O/N=C(\C(=O)N[C@@H]1C(=O)N2C(C(=O)[O-])=C(C[n+]3ccccc3)CS[C@H]12)c1csc(N)n1)C(=O)O

KPC-2 (Klebsiella pneumoniae)
Km [1]: 380 µM
kcat [1]: 199 s⁻¹
kcat/Km [1]: 523000 M⁻¹ s⁻¹
Km [2]: 420 µM
kcat [2]: 112 s⁻¹
kcat/Km [2]: 268000 M⁻¹ s⁻¹
Km [3]: 580 µM
kcat [3]: 42.9 s⁻¹
kcat/Km [3]: 74000 M⁻¹ s⁻¹
